One substance from article PMC3511584 can be followed below.

In experiment [1] the target is circularly permuted RoCBM21 (CP90) (Rhizopus oryzae). The experiment can be described thus: AUC; data not shown: apoCP90 at pH 2.5, 3, 4, 5, 6, 7, 8, 9 and 10, no ligand.
Experiment [2] shares this target. Briefly: AUC; sedimentation velocity, no ligand, protein around 1.0 mg/ml, 40,000 rpm, 25°C, absorbance at 280 nm, SEDFIT.

Take “circularly permuted RoCBM21 (CP90) (domain or fragment)”: the stoichiometry N in experiment [1] and in experiment [2] was 2 in each case.
